{"source": "patent US20150231236A1", "about": "“METHODS FOR TREATING PATIENTS WITH HYPERCHOLESTEROLEMIA THAT IS NOT ADEQUATELY CONTROLLED BY MODERATE-DOSE STATIN THERAPY” (Regeneron Pharmaceuticals, Inc., priority 2014, published 2015)", "key": {"[1]": {"test_system": "patients with hypercholesterolemia at high CV risk not adequately controlled with atorvastatin (20 mg or 40 mg)", "test": "Example 2: anti-mAb316P anti-drug antibody (ADA) status", "format": "in vivo, human"}, "[2]": {"test_system": "patients with hypercholesterolemia at high CV risk not adequately controlled with atorvastatin (20 mg or 40 mg)", "test": "Example 2: safety, treatment-emergent adverse events in pooled treatment groups", "protocol": "For the pooled data, three treatment groups are formed by combining treatment arms regardless of the atorvastatin doses as follows:\n(2) EZE treatment group: pooling EZE+atorva 20 mg arm and EZE+atorva 40 mg arm;"}, "[3]": {"test_system": "patients with hypercholesterolemia at high CV risk not adequately controlled with rosuvastatin (10 mg or 20 mg)", "conditions": "in vivo"}, "[4]": {"conditions": "of the five ADA positive patients"}, "[5]": {"conditions": "Safety Population, pooled treatment groups"}}, "data": [{"substance": "mAb316P: human anti-PCSK9 antibody; heavy chain SEQ ID NO:5, light chain SEQ ID NO:9", "values": [{"measurement": "Treatment-emergent ADA positive responses", "setting": "[1]; 5 of 99 patients in the pooled mAb316P add-on group", "result": 5.1, "unit": "%"}, {"measurement": "overall immunogenicity", "setting": "[1]; in vivo", "result": "immunogenicity was low"}, {"measurement": "positive mAb316P-neutralizing antibody status", "setting": "[1]; of patients with positive ADA status", "result": "One and one"}, {"measurement": "treatment-emergent ADA: persistent responses", "setting": "[1]; [4]", "result": "three"}, {"measurement": "treatment-emergent ADA: transient response", "setting": "[1]; [4]", "result": "one"}, {"measurement": "General Allergic TEAEs (SMQ Hypersensitivity)", "setting": "[2]; [5]", "result": "2 (1.9%) patients (%)"}, {"measurement": "SOC Injury, poisoning and procedural complications", "setting": "[2]; [5]", "result": "15 (14.4%) patients (%)"}, {"measurement": "SOC Musculoskeletal and connective tissue disorders", "setting": "[2]; [5]", "result": "24 (23.1%) patients (%)"}, {"measurement": "SOC Neoplasms benign, malignant and unspecified (incl cysts and polyps)", "setting": "[2]; [5]", "result": "3 (2.9%) patients (%)"}, {"measurement": "SOC Nervous system disorders", "setting": "[2]; [5]", "result": "10 (9.6%) patients (%)"}, {"measurement": "TEAEs", "setting": "[2]; [5]", "result": "68 (65.4%) patients (%)"}, {"measurement": "Treatment-emergent SAEs", "setting": "[2]; [5]", "result": "4 (3.8%) patients (%)"}, {"measurement": "Treatment-emergent injection site reactions (ISRs)", "setting": "[2]; [5]", "result": "3 (2.9%) patients (%)"}, {"measurement": "Treatment-emergent neurologic disorders", "setting": "[2]; [5]", "result": "3 (2.9%) patients (%)"}, {"measurement": "discontinued study treatment early due to a treatment emergent adverse event (TEAE)", "setting": "[2]; [5]", "result": "7 (6.7%) patients (%)"}, {"measurement": "Treatment-emergent cardiovascular events adjudicated positively", "setting": "[2]; Safety Population, pooled treatment groups, ischemia driven coronary revascularization procedure", "result": "2 (1.9%) patients (%)"}, {"measurement": "TEAE Back pain", "setting": "[2]; pooled mAb316P group", "result": 7, "unit": "patients"}, {"measurement": "TEAE Headache", "setting": "[2]; pooled mAb316P group", "result": 4, "unit": "patients"}, {"measurement": "TEAE Hypertension", "setting": "[2]; pooled mAb316P group", "result": 5, "unit": "patients"}, {"measurement": "TEAE Muscle spasms", "setting": "[2]; pooled mAb316P group", "result": 4, "unit": "patients"}, {"measurement": "TEAE influenza", "setting": "[2]; pooled mAb316P group", "result": 3, "unit": "patients"}, {"measurement": "TEAE nasopharyngitis", "setting": "[2]; pooled mAb316P group", "result": 5, "unit": "patients"}, {"measurement": "TEAE upper respiratory tract infection", "setting": "[2]; pooled mAb316P group", "result": 5, "unit": "patients"}, {"measurement": "TEAE urinary tract infection", "setting": "[2]; pooled mAb316P group", "result": 3, "unit": "patients"}, {"measurement": "2 consecutive calculated LDL-C measurements below 25 mg/dL", "setting": "[3]", "result": "13 (12.6%) patients (%)"}, {"measurement": "General Allergic TEAEs", "setting": "[3]", "result": "11 (10.7%) patients (%)"}, {"measurement": "SOC General disorders and administration site conditions", "setting": "[3]", "result": "15 (14.6%) patients (%)"}, {"measurement": "SOC Immune system disorders", "setting": "[3]", "result": "1 (1.0%) patients (%)"}, {"measurement": "SOC Psychiatric disorders", "setting": "[3]", "result": "5 (4.9%) patients (%)"}, {"measurement": "SOC Respiratory, thoracic and mediastinal disorders", "setting": "[3]", "result": "7 (6.8%) patients (%)"}, {"measurement": "SOC Skin and subcutaneous tissue disorders", "setting": "[3]", "result": "8 (7.8%) patients (%)"}, {"measurement": "TEAE accidental overdose", "setting": "[3]", "result": 3, "unit": "patients"}, {"measurement": "TEAE arthralgia", "setting": "[3]", "result": 4, "unit": "patients"}, {"measurement": "TEAE constipation", "setting": "[3]", "result": 2, "unit": "patients"}, {"measurement": "TEAE diarrhea", "setting": "[3]", "result": 2, "unit": "patients"}, {"measurement": "TEAE dizziness", "setting": "[3]", "result": 3, "unit": "patients"}, {"measurement": "TEAE fatigue", "setting": "[3]", "result": 3, "unit": "patients"}, {"measurement": "TEAE hypokalaemia", "setting": "[3]", "result": 2, "unit": "patients"}, {"measurement": "TEAE laceration", "setting": "[3]", "result": 3, "unit": "patients"}, {"measurement": "TEAE local swelling", "setting": "[3]", "result": 2, "unit": "patients"}, {"measurement": "TEAE myalgia", "setting": "[3]", "result": 4, "unit": "patients"}, {"measurement": "TEAE nasopharyngitis", "setting": "[3]", "result": 4, "unit": "patients"}, {"measurement": "TEAE nausea", "setting": "[3]", "result": 3, "unit": "patients"}, {"measurement": "TEAE pain in extremity", "setting": "[3]", "result": 2, "unit": "patients"}, {"measurement": "TEAE sciatica", "setting": "[3]", "result": 2, "unit": "patients"}, {"measurement": "TEAEs", "setting": "[3]", "result": "58 (56.3%) patients (%)"}, {"measurement": "Treatment-emergent SAEs", "setting": "[3]", "result": "6 (5.8%) patients (%)"}, {"measurement": "Treatment-emergent cardiovascular events adjudicated positively", "setting": "[3]", "result": "Zero"}, {"measurement": "Treatment-emergent neurocognitive disorders", "setting": "[3]", "result": "1 (1.0%) patients (%)"}, {"measurement": "Treatment-emergent neurologic disorders", "setting": "[3]", "result": "2 (1.9%) patients (%)"}, {"measurement": "discontinued study treatment early due to a treatment emergent adverse event", "setting": "[3]", "result": "5 (4.9%) patients (%)"}, {"measurement": "tolerability", "setting": "[3]", "result": "well tolerated"}]}]}
